Measured values reported in paper doi:10.1101/760389 (bioRxiv, 2019).

B1: FRA1 C-terminal tail fragment (amino acids 616-1035), C-terminal 6xHis fusion (domain or fragment, Arabidopsis thaliana, UniProt Q8GS71 616-1035, looked up)
chain: ARRLQDEIQSIKAQKVQLQHRMKQEAEQFRQWKASREKELLQLRKEGRKSEYERHKLQALNQRQKMVLQRKTEEAAMATKRLKELLEARKSSPREHSAGTNGFGTNGQTNEKSLQRWLDHELEVMVNVHEVRHEYEKQSHVRAALAEELAVLRQVDEFAVKGLSPPRGKNGFARASSLSPNARMARISSLENMLVISSNSLVAMASQLSEAEERERAFTNRGRWNQLRSMGEAKNLLQYMFNSLAETRCQLWEKDVEIKEMKDQFKEIVGLLRQSELRRKEAEKELKLREQAIATSLGTPPSSVKHVAEDLSTPSPMTVPAQKQLKFTPGIANGKVRGPAAFLDTNKKMVPMGQVSMRKLSAVGKQGGRLWRWKRSHHQWIVQFKWKWQKPWRLSEWIRTSDETLLKSKPRLKALPNKIM

How the values were obtained:
[1] = molecular target: T1, MBP-tagged CKL6 (casein kinase1-like 6) (Arabidopsis thaliana, UniProt Q8LPJ1 1-479); assay: pull-down
T1 sequence (looked up): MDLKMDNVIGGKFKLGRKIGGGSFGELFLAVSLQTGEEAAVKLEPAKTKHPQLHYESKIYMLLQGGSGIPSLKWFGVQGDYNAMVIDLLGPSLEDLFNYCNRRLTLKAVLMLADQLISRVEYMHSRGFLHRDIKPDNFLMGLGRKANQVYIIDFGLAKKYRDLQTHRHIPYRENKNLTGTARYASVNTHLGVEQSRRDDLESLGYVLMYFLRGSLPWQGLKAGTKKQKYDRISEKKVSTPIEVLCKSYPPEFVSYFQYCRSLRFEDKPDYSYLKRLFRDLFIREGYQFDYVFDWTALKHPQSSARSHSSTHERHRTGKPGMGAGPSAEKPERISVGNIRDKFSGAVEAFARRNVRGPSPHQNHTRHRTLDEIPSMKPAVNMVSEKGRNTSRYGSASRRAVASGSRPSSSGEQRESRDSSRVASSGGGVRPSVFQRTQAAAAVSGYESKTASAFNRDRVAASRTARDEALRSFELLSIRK

[2] = molecular target: B1; assay: pull-down

B1
binding result [1]: binds

B2: MBP-tagged CKL3 (casein kinase1-like 3) (enzyme, Arabidopsis thaliana, UniProt Q93Z18 1-415, looked up)
chain: MERIIGGKYKLGRKIGGGSFGEIFLATHVDTFEIVAVKIENSKTKHPQLLYEAKLYRILEGGSGIPRIKWFGVDGTENALVMDLLGPSLEDLFVYCGRKFSPKTVLMLADQMLTRIEFVHSKGYLHRDIKPDNFLMGLGRKANQVYLIDFGLAKRYRDANTNRHIPYRENKNLTGTARYASCNTHLGIEQSRRDDLESLGYVLLYFLRGSLPWQGLKAVDKKQKYDKICEKKISTPIEVLCKNHPVEFASYFHYCHTLTFDQRPDYGFLKRLFRDLFSREGYEFDYIFDWTIIKYQQAQKSRNQSQAVPGSSNPRAMPVDTSNHRGGPNISYEAEASERVRSANAIGPSPQINNNTAAGRTPGFDHPVHKNMNMPSTSLSPAGTSKRNVGPETSNSGYGSGNRTGWTSSFMSPEK
binding result [2]: binds
